Test results from the Immune Epitope Database (IEDB).

How the values were obtained:
[1] = biological target: HLA-C*03:03; experiment: IEDB peptide-MHC binding, purified MHC/direct/fluorescence; filed as Kd, often an IC50 or EC50 that approximates it; ≥ and ≤ were set here for values at or beyond the usual limits of such assays
[2] = biological target: HLA-A*02:01; experiment: IEDB peptide-MHC binding, purified MHC/competitive/fluorescence; filed as Kd, often an IC50 or EC50 that approximates it; ≥ and ≤ were set here for values at or beyond the usual limits of such assays
[3] = biological target: HLA-A*02:16; experiment: as above
[4] = biological target: HLA-C*07:02; experiment: IEDB peptide-MHC binding, purified MHC/direct/fluorescence; filed as Kd, often an IC50 or EC50 that approximates it; ≥ and ≤ were set here for values at or beyond the usual limits of such assays
[5] = biological target: HLA-A*02:01; experiment: as above
[6] = biological target: HLA-A*02:03; experiment: as above; conditions: source organism: Variola virus
[7] = biological target: HLA-A*69:01; experiment: as above
[8] = biological target: HLA-A*31:01; experiment: IEDB peptide-MHC binding, purified MHC/competitive/fluorescence; filed as Kd, often an IC50 or EC50 that approximates it; ≥ and ≤ were set here for values at or beyond the usual limits of such assays; conditions: source organism: Variola virus
[9] = biological target: HLA-A*02:03; experiment: as above; conditions: source organism: Bacillus anthracis str. A0488
[10] = biological target: HLA-A*02:11; experiment: as above
[11] = biological target: HLA-A*02:19; experiment: as above
[12] = biological target: HLA-A*03:01; experiment: as above
[13] = biological target: HLA-A*23:01; experiment: as above; conditions: source organism: Bacillus anthracis str. A0488
[14] = biological target: HLA-A*24:03; experiment: as above; conditions: source organism: Bacillus anthracis str. A0488
[15] = biological target: HLA-A*26:01; experiment: as above
[16] = biological target: HLA-A*29:02; experiment: as above; conditions: source organism: Bacillus anthracis str. A0488
[17] = biological target: HLA-B*15:01; experiment: as above
[18] = biological target: HLA-B*18:01; experiment: as above; conditions: source organism: Bacillus anthracis str. A0488
[19] = biological target: HLA-B*27:03; experiment: as above
[20] = biological target: HLA-B*39:01; experiment: as above
[21] = biological target: HLA-B*46:01; experiment: as above
[22] = biological target: HLA-B*51:01; experiment: as above
[23] = biological target: HLA-B*57:01; experiment: as above
[24] = biological target: HLA-A*68:02; experiment: as above
[25] = biological target: HLA-B*18:01; experiment: IEDB peptide-MHC binding, purified MHC/direct/fluorescence; filed as Kd, often an IC50 or EC50 that approximates it; ≥ and ≤ were set here for values at or beyond the usual limits of such assays; conditions: source organism: Influenza A virus (A/Turkey/MO/24093/99(H1N2))
[26] = biological target: HLA-B*40:01; experiment: as above; conditions: source organism: Influenza A virus (A/Turkey/MO/24093/99(H1N2))
[27] = biological target: HLA-B*44:02; experiment: as above
[28] = biological target: HLA-B*15:42; experiment: IEDB peptide-MHC binding, purified MHC/competitive/fluorescence; filed as Kd, often an IC50 or EC50 that approximates it; ≥ and ≤ were set here for values at or beyond the usual limits of such assays; conditions: source organism: Influenza A virus (A/Fort Monmouth/1/1947-mouse adapted(H1N1))
[29] = biological target: HLA-B*45:06; experiment: as above; conditions: source organism: Influenza A virus (A/Fort Monmouth/1/1947-mouse adapted(H1N1))
[30] = biological target: HLA-B*83:01; experiment: as above; conditions: source organism: Influenza A virus (A/Fort Monmouth/1/1947-mouse adapted(H1N1))
[31] = biological target: HLA-B*07:02; experiment: as above
[32] = biological target: HLA-B*51:01; experiment: IEDB peptide-MHC binding, purified MHC/direct/fluorescence; filed as Kd, often an IC50 or EC50 that approximates it; ≥ and ≤ were set here for values at or beyond the usual limits of such assays; conditions: source organism: Baboon gamma-herpesvirus
[33] = biological target: HLA-A*02:12; experiment: IEDB peptide-MHC binding, purified MHC/competitive/fluorescence; filed as Kd, often an IC50 or EC50 that approximates it; ≥ and ≤ were set here for values at or beyond the usual limits of such assays; conditions: source organism: Entamoeba histolytica HM-1:IMSS
[34] = biological target: HLA-A*69:01; experiment: as above; conditions: source organism: Entamoeba histolytica HM-1:IMSS
[35] = biological target: HLA-A*01:01; experiment: IEDB peptide-MHC binding, purified MHC/direct/fluorescence; filed as Kd, often an IC50 or EC50 that approximates it; ≥ and ≤ were set here for values at or beyond the usual limits of such assays; conditions: source organism: Yersinia pestis
[36] = biological target: HLA-A*03:01; experiment: as above; conditions: source organism: Yersinia pestis
[37] = biological target: HLA-A*11:01; experiment: as above; conditions: source organism: Yersinia pestis
[38] = biological target: HLA-A*26:01; experiment: as above; conditions: source organism: Yersinia pestis
[39] = biological target: HLA-A*31:01; experiment: as above; conditions: source organism: Yersinia pestis
[40] = biological target: HLA-B*07:02; experiment: as above; conditions: source organism: Yersinia pestis
[41] = biological target: HLA-B*08:01; experiment: as above; conditions: source organism: Yersinia pestis
[42] = biological target: HLA-B*15:01; experiment: as above; conditions: source organism: Yersinia pestis
[43] = biological target: HLA-B*27:05; experiment: as above; conditions: source organism: Yersinia pestis
[44] = biological target: HLA-B*35:01; experiment: as above; conditions: source organism: Yersinia pestis
[45] = biological target: HLA-B*58:01; experiment: as above; conditions: source organism: Yersinia pestis
[46] = source organism: Coxiella burnetii RSA 493
[47] = source organism: Camelpox virus CMS
[48] = source organism: Bacillus anthracis str. A0488
[49] = source organism: Human immunodeficiency virus 1
[50] = source organism: Entamoeba histolytica HM-1:IMSS
[51] = source organism: Marburg virus - Musoke, Kenya, 1980
[52] = source organism: Yersinia pestis

Sequence: DAMENPLSL
- Kd ([1]; source organism: Leishmania donovani): 0.625 µM

Sequence: FLFLYWPHY
- Kd [2, 46]: 0.628 µM
- Kd [3, 46]: 1.74 µM

Sequence: FYYNAFHWA
- Kd ([4]; source organism: Homo sapiens): 0.813 µM

Sequence: HMIDKLFYV
- Kd [5, 47]: ≤ 0.001 µM
- Kd [6]: ≤ 0.001 µM
- Kd [7, 47]: 0.002 µM
- Kd ([1]; source organism: Variola virus): 0.787 µM
- Kd [8]: 0.0215 µM

Sequence: KLWASFFQG
- Kd [2, 48]: 0.104 µM
- Kd [9]: ≥ 20 µM
- Kd [10, 48]: 0.0025 µM
- Kd [11, 48]: ≥ 20 µM
- Kd [12, 48]: ≥ 20 µM
- Kd [13]: ≥ 20 µM
- Kd [14]: ≥ 20 µM
- Kd [15, 48]: ≥ 20 µM
- Kd [16]: ≥ 20 µM
- Kd [17, 48]: ≥ 20 µM
- Kd [18]: ≥ 20 µM
- Kd [19, 48]: ≥ 20 µM
- Kd [20, 48]: ≥ 20 µM
- Kd [21, 48]: ≥ 20 µM
- Kd [22, 48]: ≥ 20 µM
- Kd [23, 48]: ≥ 20 µM

Sequence: LYNTVAVLY
- Kd [4, 49]: ≥ 20 µM
- Kd [24, 49]: ≥ 20 µM

Sequence: MQIRGFVYF
- Kd [25]: 0.119 µM
- Kd [26]: ≥ 20 µM
- Kd ([27]; source organism: Influenza A virus (A/Turkey/MO/24093/99(H1N2))): ≥ 20 µM
- Kd ([4]; source organism: Influenza A virus (A/Fort Monmouth/1/1947-mouse adapted(H1N1))): ≥ 20 µM
- Kd [28]: ≥ 5 µM
- Kd [29]: ≥ 5 µM
- Kd [30]: ≥ 5 µM

Sequence: PPKYTPRPA
- Kd ([31]; source organism: Escherichia coli 536): ≥ 20 µM

Sequence: VAYHFHEPL
- Kd ([1]; source organism: Mycobacterium tuberculosis variant bovis BCG str. Pasteur 1173P2): ≤ 0.001 µM

Sequence: VPGSETMCY
- Kd [32]: ≥ 20 µM
- Kd ([31]; source organism: human gammaherpesvirus 4): ≥ 20 µM

Sequence: WAKLLKQKW
- Kd [2, 50]: ≥ 20 µM
- Kd [10, 50]: ≥ 20 µM
- Kd [33]: ≥ 20 µM
- Kd [3, 50]: ≥ 20 µM
- Kd [11, 50]: ≥ 20 µM
- Kd [12, 50]: ≥ 20 µM
- Kd [15, 50]: ≥ 20 µM
- Kd [24, 50]: ≥ 20 µM
- Kd [34]: ≥ 20 µM
- Kd [17, 50]: ≥ 20 µM
- Kd [19, 50]: ≥ 20 µM
- Kd [20, 50]: ≥ 20 µM
- Kd [21, 50]: ≥ 20 µM
- Kd [22, 50]: ≥ 20 µM
- Kd [23, 50]: 0.227 µM

Sequence: WLDSVIQYL
- Kd [5, 51]: 0.143 µM
- Kd [7, 51]: 0.963 µM
- Kd ([1]; source organism: Orthomarburgvirus marburgense): 0.24 µM

Sequence: YGIPFPGSL
- Kd [35]: ≥ 20 µM
- Kd [5, 52]: 14.3 µM
- Kd [36]: ≥ 20 µM
- Kd [37]: ≥ 20 µM
- Kd [38]: ≥ 20 µM
- Kd [39]: ≥ 20 µM
- Kd [7, 52]: ≥ 20 µM
- Kd [40]: 9.76 µM
- Kd [41]: ≥ 20 µM
- Kd [42]: ≥ 20 µM
- Kd [43]: ≥ 20 µM
- Kd [44]: 0.12 µM
- Kd [27, 52]: ≥ 20 µM
- Kd [45]: ≥ 20 µM
- Kd ([1]; source organism: Yersinia pestis Nepal516): ≤ 0.001 µM
